A short description of this series: label from the status in PepcDB records.

The results in this text go back to a protein production outcome set (Wang et al. 2014).

For the sequence “MLSKFLLFSARLSTTKILASLIIIMILATGLYQWLIHTPAFSPQVSAVSTTTENDFSLTDWTINLVDKLNWQQGGSSTFFNAGLLFVFLSLATSVGLPRQIAALVAGINLGAFIGIIVATLAATLGCFITFSVARYLLSDCITRKYPSKLAQLSAFLGEQTFLKAIVIRILPLGSNFITNIIAGVSKVSMPAYVSGSFVGFIPQMVIFSLAGSGIRLGAQNELIASATLFVIALILTTYLVKKHKAKTKN”, the protein production entry is “failed”.

Turning to “MLSKVIAQANIDHAEKWFERADKIVIVTHVSPDGDAIGSSLGLWHFLESQEKTVNVIVPNAFPDFLRWMPGAKDIIRYDKYTEFANKLLNEADVICCLDFNALSRIDAMADAVAQSPARKMMIDHHLNPEAFCRIIISHPEISSTSELVFRLICRLGYFEDITKEGAECIYTGMMTDTGGFTYNSNDREIYFIISELLSKGIDKDEIYRKVYNTYSEGRLRLMGYVLYDKMQVFPQFNSALVWLTKEEQSKFQYVKGDTEGFVNIPLSIKNIIFSVFLREDTEKNMIKVSLRSVGAFPCNKVAAEFFNGGGHLNASGGEFYGTMDEAIDLFKQALVKYEELLLAKK”, the protein production result is on record as “failed”.

“MLSLNQEVHGPKTSEVYGFVGSISIVVATVIFLIWGYVPDKFLESIGIYYYPSKYWAMAMPMYSMVTLLVALVFYIGLNFMSTSKPTSLNTLFDDYSREDVNFLPLMKNGEDRPIDPISDIDITRINDLMFDSHLAK”: the protein production entry is reported as “failed”.

“MLSRLFLLFALVPFLELYLLVQVGTVIGAAPTILLVILTAVVGAWLARTQGLGVMARVQNDLARGIMPGQALIDGFCILLAGLLLLTPGFLTDVVGLLLLLPPFRALLASRLQRHFAVRYASSGTTAEGGHFIVYGSSGPAAHEEPRHAVVIDTQPIDSSSAATGLADDTKPLGDAQPSGDGRPRS”: the protein production entry was “failed”.

Consider “MLSRLSLLSNSRAFQQARWRIYRLKVSPTVHASQYHILSGRKLAQSIREKANDEIQAIKLKHPNFKPTLKIIQVGARPDSSTYVRMKLKASKDSNVDCIIEKLPAEITEVELLKKISDINDDDSIHGLLIQLPLPRHLDETTITNAVDFKKDVDGFHRYNAGELAKKGGKPYFIPCTPYGCMKLLEEAHVKLDGKNAVVLGRSSIVGNPIASLLKNANATVTVCHSHTRNIAEVVSQADIVIAACGIPQYVKSDWIKEGAVVIDVGINYVPDISKKSGQKLVGDVDFDSVKEKTSYITPVPGGVGPMTVAMLVSNVLLAAKRQFVESEKLPVIKPLPLHLESPVPSDIDISRAQSPKHIKQVAEELGIHSHELELYGHYKAKISPNIFKRLESRENGKYVLVAGITPTPLGEGKSTTTMGLVQALSAHLGKPSIANVRQPSLGPTLGVKGGAAGGGYAQVIPMDEFNLHLTGDIHAISAANNLLAAAIDTRMFHEATQKNDSTFYKRLVPRKKGIRKFTPSMQRRLKRLDIEKEDPDALTPEEVKRFARLNINPDTITIRRVVDINDRMLRQITIGEAATEKGFTRTTGFDITVASELMAILALSKSLHEMKERIGRMVIGADYDNKPVTVEDIGCTGALTALLRDAIKPNLMQTLEGTPVMVHAGPFANISIGASSVIADLMALKLVGSEKNPLNDKNIHEPGYVVTEAGFDFAMGGERFFDIKCRSSGLVPDAVVLVATVRALKSHGGAPNVKPGQSLPKEYTEENIDFVAKGVSNLVKQIENIKTFGIPVVVAINRFETDSQAEIEVIKKAALNAGASHAVTSNHWMEGGKGAVELAHAVVDATKEPKNFNFLYDVNSSIEDKLTSIVQKMYGGAKIEVSPEAQKKIDTYKKQGFGNLPICIAKTQYSLSHDPSLKGVPRGFTFPIRDVRASIGAGYLYALAAEIQTIPGLSTYAGYMAVEVDDDGEIEGLF”, for which the protein production entry is “failed”.

Turning to “MLSVIIITKNEEANIRRCLESVHFADEIIVLDSGSTDNTLAIAREYTDKVFSTDWQGYGIQKDRALQKAQGDWVLNLDADESVSSELRQEILQAISSDTADAFRIPIQMIFYNQVLKYSGSPKRHIRLFKRENASYSKDIVHEKVLIPVNARVGKLKKPIWHHSFSDVHHVLYKLNKYSSYSAKIRIESNEKVGLVKTFFSALWMFVRCLFLQKGFLDGRAGFLFAVFGAQGAFYRGVKQIYKDRDINKLPSVNHIKEELEHHHHHH”, the protein production entry was “not failed”.

For the sequence “MLSYCPNIFYLIMTTLCLVIQTGCSPAQDHVHSQLHSSISVTDRDGNTVQLNQPARRIVCLFEASVDDLYMLGAGKSIIGIPAKIYTSSDLYRAYSILDRRIYEKKIATPSNWEASTNIESVVALQPDLVIVSAGQKDVIQILNRMHIPVYSVLSENLQQTRKELLDLGKLTGKSQRASELVEFIDHEIQAIQQRNHTQSDQKTIYYGWSGGRIFSTSGRDSMPNTVMTLAGAHNVVNTAIDQPNVNPEKLIEWNPDVILLWNTNPKQIYQRSELKTLTAVKQQHVFNLSPSFLFNPHTPKILLAANQLNHWVYPAPHSDQAATQDKLRILTQFYGKTAAEQLIQYANDVTKE”, the protein production result was “failed”.

Take “MLTAAVLLPLVGALVAWIVPDNRLRPLVLPAVAVPHFLLTLALLAWTPPPSPQGWIFLDPLGKIVLLCISTLFLICAVYAVGYLAYRRDRSNRVLCMGLLACLSAMTLVTASQHLGLLWVAVETTTVTMAPLIYFNRNARSIEATWKYLLICSVGIALALLGLFFLAYATLVAHRDATLLLGPILASARELNPGWLHASFIFMLVGFGSKMGIAPLHSWKPDAYGEAPGLVGALLAGGLVNCAFLAILRVYQISLASGGEYLFFQKALLTMGLISMGLAAVFMARQADFKRMLAYSSVEHVGILAVALGLGKGALFGALFHLLNNGLTKGVLFLSSGNIHRSFNSKSTEVVRGALARLPWSAGLFLAGFIAITGSPPFSPFVSEFSIVSSAFVEGRYLVGGLFLFFLAVIFIGMALTVLPLVMGVPPADAERTDYRDRLLTVGPPLALLGLILMLGVWLPEPLLRLLGEGAALLEAKP”: the protein production result was “failed”.

On to “MLTEMHIAVIGGDARQLEVIRKLVELDAKLSLIGFDQLDHGFTGAAKESIQNLDFTSVDAIILPVAGTNAKGEVDTIFSNEKVSITKEQIENTPEHFTIYSGIGTPYLENLVSTTNRKLIKLFDRDDVAIYNSIPTVEGTLMMVIQHTDYTIHGSNVMVLGFGRTGMSVARAFQSLGAHVKVGARRSEHIARITEMMFSPFHMQDIEKEVGDIDIVINTIPHLVVTANVISKMPAHTLVIDLASKPGGTDFRYAEKRGVKALLAPGLPGIVAPKTAGQILANVLSQLLAEDVIARKENGE”, for which the protein production entry is on record as “failed”.

For the sequence “MLTFEKVLEIFADYLTADETIEVYISRHGCVRVEFDQDFHYCSGEVCHTPKELFNLLADDYRTYVEIELTKGRRELTEDDEREADALCKRHLERWREKLE”, the protein production result is “failed”.

Take “MLTLALCIMILFTYLCMFFNFKYSAHLSIYISQVILGYVVIIIHIGEHTLPIDILVVMSLGALLLHIKHKHLMQNRMSALFLKRLYYVAFKLVVFTLACFYISLIPIGINVIFLWISAISFSALFTFICYMMCSSNFLNLNNKPDFDVILVLGAGIFTENVTPMLASRLDRALTLYVQQPNAKFIVSGGQGPDEPISEALAMKRYLIHHGVESNHIMLEDQSTSTSENIQFSKSLIESHFECVPKIVCVTSQFHIMRALRFGQKFNLKLTGVGSHTPYHFFEIALIRDFLALMYQYKLLLTVYFAALFFICIITYWFIPSIPL”: the protein production entry was “failed”.

On to “MLTLLPTPIGNLQDITLRSLEVLKVAEIILCEDTRVSKRLLSLLSQKELLPPKEYRYISLHSHNEEATLQNLPPDFFTQEVVYMSDAGMPCISDPGAALVRYAQERGISYTVLPGA”, for which the protein production result was “failed”.

In the case of “MLTTTRRAALISGLATTGLAAFGNRAFAQETGAVGAAVDKFAQDVMAAFPDQPGLGITVVENGQITLAKGYGVKALGGQDRCDESTVFGIASNTKAMTAALLAMLVEEGRVEWDAPVTQYLPDFAMKDPIVTKLLTVRDLLVHRSGLSLGAGDLMIWPAPTHTRAEIVAGLKHLPIGGQFRGGYAYDNVLYVVAGAVIEAVTGQTWEQVIKARIFDPLGMSNTVSSPRLVDQSRRALPHARLGPPVRGLGPQKVLPFDASFDAAGPAGGVNSCPADIGKWMQVQLGRGVSADGKRLWSEAQAREMWKPQTITSSSDGPSNENPARPSMQAYALGWYVQDHRGERLLWHTGGLAGFISYTGLLPGRKSGIMIMTNAEENPVLRSLRFGGPDRLQGRSDFDWIASSKRVQAEADAQTIKDAAAATTPKGGGAPPSLPLEAYAGVYRDPWYGTVTISVTGKGKKKGLYVSFDKTPLLRGKLGPFDGETFITTFEDRTQEDAFFTFDIKDGKAVSALVKAVSPLADFSYDYHDLRLTKEG”, the protein production result is given as “failed”.

Consider “MLTVRNHPGVMSHICGLFARRAFNVDGILCMPLAGGEESRIWLQVLDDQRLQQMISQLEKLEDVLQVCRFDSEMPIFDQVEDLVAHQR”, for which the protein production entry was “not failed”.

Regarding “MLVGNYDATLVLTSLFVAILASYTALGMAGRVAASRGVAARVWLGGGAFAMGLGIWSMHFIGMLAFSLPIPLGYDVALTVASMALAVACSAFALWVVTRATLPWRRLAGAAALMGTGIAAMHYTGMAAMRMHPAIEYSPALFMLSVAVAIVASGAALWITHALRHNRPGAPAYRICAAIVMGLAIVGMHYTGMAAANFPQGSVCMAANSGISAGWLAVSTAAVTLAVLAVALVVAVLDTRLETRTSALNASLAQANEELVQMALHDTLTKLPNRALLDERLKQAIIRATAAGRGFSLLFIDLDGFKAINDAYGHGAGDLLLVEMAQRIKRAMRPQDCVARLGGDEFVVLADLPDPNDAAGLAERLIDTLTVPAEVQGHEVSVAASIGIALFPGDGADASTLLAHADAAMYHAKRLSQTHRVSFFEPSMNEDALEQLQLLQDLRLALPRNQLELHYQPKFVAPAGPVVGAEALLRWNHPTRGVIGPTVFIPIAERTGLIFSIGAWVLDEACRQMRQWRDMGHADWTVAVNLSSLQFSQPDLIDSIRATLARHDLPPRCLAIEITESTAMRDAEASLTVLRELAELGVSISIDDFGTGYSSLLYLKRLPATELKIDRGFVNQLEHDNEDAAIVSAIIALGQKLNLKIVAEGVETLAQQSFLTEMGCDSLQGFLLGRPLPAAEFLAHTLQPQLA”, the protein production result is listed as “failed”.

Regarding “MLVSCAMRLHSGVFPDYAEKLPQEEKMEKEDSFPQRVWQIVAAIPEGYVTTYGDVAKLAGSPRAARQVGGVLKRLPEGSTLPWHRVVNRHGTISLTGPDLQRQRQALLAEGVMVSGSGQIDLQRYRWNY”, the protein production entry is on record as “failed”.

“MLVSSSKITRAREMVTKTEEKQLNQLEIQVDNGGGGTWEYLCLVRNLKVRRSEKVLKHGSSILNDQKKRSALGPDEWTLNEQVAIAAMDCQCLGVAQSCIKALQTKFPGSKRVGRLEALLLEAKGLWGEAEEAYASLLEDNPLDQAIHKRRVAISKALGKPSIAIELLNKYLELFMADHDAWRELAELYLSLQMYKQAAFCYEELILSQPTVPLYHLAYAEVLYTIGGVENIISARKYYAATVDLTGGKNTRALLGICLCASAIAQLSKGRNKEDKDATAAPELHSLAAAAVEKEYKQKAPDKLQLISSALRILKT”: the protein production result is reported as “failed”.

“MLVTGVARQLGGRFVRRIQRDPNVDRVIAVDAVRPEHHLGGADFIQADIRQPTIARVLAEHSVDTVVHMDVTGTALGTGSRATVKETNVIGTMQLLGACQKSPTVKRLVVKSSTNVYGSAPRDPAVFTETTPPKSLPSGGFAKDTVEVEGYVRGFARRRPDVAVCVLRFANILGPSADSPLASYFSLPVLPTVFGYDPRLQFAHEDDVIDVLRIASYEPRRGTLNSGTFNVAGDGVLLLSQCARRLGRPTVPLLLPAVTWVGSAVRTLGMTDFSPEQIRLLTHGRVVATNQMRETLGYVPKYTTAETFADFARSRGPGLLPPEALAGAVDRIAALPALGGGHPPTQSAN”: the protein production entry was “failed”.

With “MLVVYIALMICTMTPVLALQAGADMSVLVWLVFGLVIVKAVLLVDHFMEMKHAPWGWRMAAQGWAVVVVSVLAGIHLAG”, the protein production entry is on record as “failed”.
